Laboratory results: patent US6583276 (TECHNION RESEARCH AND DEVELOPMENT, dated 2003)

Molecular target: T1, KDR/flk-1 VEGF receptor of HUVEC cells (human, UniProt P35968 20-1356)
T1 construct: whole, on cells; Endogenous receptor on confluent HUVEC cells
Experiment: overview table, row 'Binding to Flk-1 and Flt-1 receptors'

T1 sequence (P35968 20-1356): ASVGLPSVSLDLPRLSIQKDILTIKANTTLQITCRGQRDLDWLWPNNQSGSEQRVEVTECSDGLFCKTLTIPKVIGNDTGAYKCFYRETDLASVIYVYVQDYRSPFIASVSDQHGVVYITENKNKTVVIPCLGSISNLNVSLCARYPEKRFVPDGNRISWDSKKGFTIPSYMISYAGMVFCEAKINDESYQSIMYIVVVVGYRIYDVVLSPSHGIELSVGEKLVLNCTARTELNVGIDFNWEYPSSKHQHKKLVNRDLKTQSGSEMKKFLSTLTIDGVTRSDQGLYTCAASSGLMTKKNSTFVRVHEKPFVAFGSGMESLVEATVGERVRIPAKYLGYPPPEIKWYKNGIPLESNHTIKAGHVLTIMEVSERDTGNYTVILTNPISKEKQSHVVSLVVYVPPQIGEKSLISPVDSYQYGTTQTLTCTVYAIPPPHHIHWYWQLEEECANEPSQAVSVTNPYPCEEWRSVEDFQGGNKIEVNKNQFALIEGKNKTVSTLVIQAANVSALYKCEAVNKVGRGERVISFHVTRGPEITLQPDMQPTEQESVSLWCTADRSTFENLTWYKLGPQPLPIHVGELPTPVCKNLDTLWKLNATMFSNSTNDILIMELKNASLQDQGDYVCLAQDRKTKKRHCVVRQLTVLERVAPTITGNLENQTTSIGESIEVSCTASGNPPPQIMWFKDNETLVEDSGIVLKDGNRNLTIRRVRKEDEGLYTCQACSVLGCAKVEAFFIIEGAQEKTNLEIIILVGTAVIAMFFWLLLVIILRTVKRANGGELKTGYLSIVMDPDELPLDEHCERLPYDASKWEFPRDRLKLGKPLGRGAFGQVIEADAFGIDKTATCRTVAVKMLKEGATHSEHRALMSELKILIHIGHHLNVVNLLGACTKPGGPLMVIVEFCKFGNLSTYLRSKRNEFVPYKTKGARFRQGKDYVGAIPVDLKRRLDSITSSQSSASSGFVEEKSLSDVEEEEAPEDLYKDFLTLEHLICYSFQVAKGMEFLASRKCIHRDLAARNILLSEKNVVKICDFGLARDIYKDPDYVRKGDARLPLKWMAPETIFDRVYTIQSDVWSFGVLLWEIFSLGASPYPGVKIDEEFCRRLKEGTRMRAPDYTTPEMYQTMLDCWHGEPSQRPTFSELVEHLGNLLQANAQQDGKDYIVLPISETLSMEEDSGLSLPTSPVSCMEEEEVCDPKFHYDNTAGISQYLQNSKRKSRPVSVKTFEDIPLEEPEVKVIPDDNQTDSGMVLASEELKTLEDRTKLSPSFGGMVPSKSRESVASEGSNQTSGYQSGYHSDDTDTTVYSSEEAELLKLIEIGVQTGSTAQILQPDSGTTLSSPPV

Binder | binding result
VEGF145 (recombinant human vascular endothelial growth factor form of 145 amino acids, exons 1-5, 6a and 8) (ligand, Produced in Sf9 insect cells with a recombinant baculovirus and partially purified on heparin-sepharose; also called r-VEGF) APMAEGGGQNHHEVVKFMDVYQRSYCHPIETLVDIFQEYPDEIEYIFKPSCVPLMRCGGCCNDEGLECVPTEESNITMQIMRIKPHQGQHIGEMSFLQHNKCECRPKKDRARQEKKSVRGKGKGQKRKRKKSRYKSWSVCDKPRR | binds
VEGF121 (ligand, human, UniProt P15692-9 27-147, looked up, mature; VEGF121 isoform of VEGF-A) APMAEGGGQNHHEVVKFMDVYQRSYCHPIETLVDIFQEYPDEIEYIFKPSCVPLMRCGGCCNDEGLECVPTEESNITMQIMRIKPHQGQHIGEMSFLQHNKCECRPKKDRARQEKCDKPRR | binds
